Experimental data reported in PMC9424243, “Structure of a nucleosome-bound MuvB transcription factor complex reveals DNA remodelling” (Nature Communications, 2022).

T1: B-MYB^FL(1–700) (human, UniProt P10244 1-700)
T1 construct: B-MYB, human, residues 1-700 (B-MYB^FL), codon optimised CDS; source: Hi-5 insect cells, expressed separately, purified separately as per the MuvB protocol
T1 sequence (looked up): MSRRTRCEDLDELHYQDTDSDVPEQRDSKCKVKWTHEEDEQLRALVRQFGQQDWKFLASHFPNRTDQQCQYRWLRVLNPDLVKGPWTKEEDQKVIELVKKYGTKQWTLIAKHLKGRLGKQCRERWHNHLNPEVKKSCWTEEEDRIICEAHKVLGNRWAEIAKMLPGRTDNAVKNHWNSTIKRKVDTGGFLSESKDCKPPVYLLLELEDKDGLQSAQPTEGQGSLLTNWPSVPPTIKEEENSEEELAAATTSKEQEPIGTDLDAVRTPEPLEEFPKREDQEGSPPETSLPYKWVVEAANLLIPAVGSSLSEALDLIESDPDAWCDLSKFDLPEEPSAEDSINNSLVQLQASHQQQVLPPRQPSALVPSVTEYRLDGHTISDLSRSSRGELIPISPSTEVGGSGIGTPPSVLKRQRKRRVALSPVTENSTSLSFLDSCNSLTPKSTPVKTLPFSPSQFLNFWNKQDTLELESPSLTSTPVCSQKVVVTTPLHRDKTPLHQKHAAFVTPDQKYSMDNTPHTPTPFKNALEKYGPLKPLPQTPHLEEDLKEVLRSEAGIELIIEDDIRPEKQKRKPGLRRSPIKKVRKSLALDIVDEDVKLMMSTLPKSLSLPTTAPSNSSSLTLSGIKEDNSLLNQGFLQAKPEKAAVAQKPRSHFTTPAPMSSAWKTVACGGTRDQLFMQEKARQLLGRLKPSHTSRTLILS

B1: LIN9^FL(1–542) (natural protein, human, UniProt Q5TKA1 1-542, looked up)
chain: MAELDQLPDESSSAKALVSLKEGSLSNTWNEKYSSLQKTPVWKGRNTSSAVEMPFRNSKRSRLFSDEDDRQINTRSPKRNQRVAMVPQKFTATMSTPDKKASQKIGFRLRNLLKLPKAHKWCIYEWFYSNIDKPLFEGDNDFCVCLKESFPNLKTRKLTRVEWGKIRRLMGKPRRCSSAFFEEERSALKQKRQKIRLLQQRKVADVSQFKDLPDEIPLPLVIGTKVTARLRGVHDGLFTGQIDAVDTLNATYRVTFDRTGLGTHTIPDYEVLSNEPHETMPIAAFGQKQRPSRFFMTPPRLHYTPPLQSPIIDNDPLLGQSPWRSKISGSDTETLGGFPVEFLIQVTRLSKILMIKKEHIKKLREMNTEAEKLKSYSMPISIEFQRRYATIVLELEQLNKDLNKVLHKVQQYCYELAPDQGLQPADQPTDMRRRCEEEAQEIVRHANSSTGQPCVENENLTDLISRLTAILLQIKCLAEGGDLNSFEFKSLTDSLNDIKSTIDASNISCFQNNVEIHVAHIQSGLSQMGNLHAFAANNTNRD
notes: LIN9, human, residues 1-542 (LIN9^FL), codon optimised CDS; Subunit of the co-expressed MuvB, MuvB^core and MMB^core complexes; only DIRP and tudor domains are built in PDB 7R1D; source: Hi-5 insect cells co-infected with MuvB baculoviruses; purified as part of the complex (Strep-Tactin, 3C protease, SEC)
B2: LIN52^FL(1–116) (natural protein, human, UniProt Q52LA3 1-112, looked up)
chain: MASPTDGTDLEASLLSFEKLDRASPDLWPEQLPGVAEFAASFKSPITSSPPKWMAEIERDDIDMLKELGSLTTANLMEKVRGLQNLAYQLGLDESREMTRGKFLNILEKPKK
notes: LIN52, human, residues 1-116 (LIN52^FL), codon optimised CDS; source: Hi-5 insect cells co-infected with MuvB baculoviruses; purified as part of the complex (Strep-Tactin, 3C protease, SEC)
B3: LIN54^short(515–749) (domain or fragment, human, UniProt Q6MZP7 515-749, looked up)
chain: SESASRPRKPCNCTKSLCLKLYCDCFANGEFCNNCNCTNCYNNLEHENERQKAIKACLDRNPEAFKPKIGKGKEGESDRRHSKGCNCKRSGCLKNYCECYEAKIMCSSICKCIGCKNFEESPERKTLMHLADAAEVRVQQQTAAKTKLSSQISDLLTRPTPALNSGGGKLPFTFVTKEVAEATCNCLLAQAEQADKKGKSKAAAERMILEEFGRCLMSVINSAGKAKSDPCAMNC
notes: LIN54, human, residues 515-749 (non-conserved N-terminus removed), codon optimised CDS; also called short version of LIN54; source: Hi-5 insect cells co-infected with MuvB baculoviruses; purified as part of the complex (Strep-Tactin, 3C protease, SEC)
B4: LIN37^FL(1–246) (natural protein, human, UniProt Q96GY3 1-246, looked up)
chain: MFPVKVKVEKSELEMAKARNQLDAVLQCLLEKSHMDRERLDEEAGKTPSDTHNKDCSIAATGKRPSARFPHQRRKKRREMDDGLAEGGPQRSNTYVIKLFDRSVDLAQFSENTPLYPICRAWMRNSPSVRERECSPSSPLPPLPEDEEGSEVTNSKSRDVYKLPPPTPPGPPGDACRSRIPSPLQPEMQGTPDDEPSEPEPSPSTLIYRNMQRWKRIRQRWKEASHRNQLRYSESMKILREMYERQ
notes: LIN37, human, residues 1-246 (LIN37^FL), codon optimised CDS; Carries the StrepII x2 tag by which the MuvB complexes were purified; the tag was removed with 3C protease before the final SEC; also called FL-LIN37; source: Hi-5 insect cells co-infected with MuvB baculoviruses; purified as part of the complex (Strep-Tactin, 3C protease, SEC)

Columns and labels:
LIN37^FL(1–246) = biological target: B4; assay: mass photometry; purified co-expressed complex diluted from 500 nM just before measurement; 20 mM HEPES pH 8, 150 mM NaCl, 0.5 mM TCEP; settings: both partners purified
B-MYB^FL(1–700) = biological target: T1, B-MYB^FL(1–700); assay: cryo-EM structure; MMB^core:NCP167 mixed at 2.5:1, GraFix (glutaraldehyde, sucrose gradient); nucleosome at 3.3 Å, MuvB^HEAD 7.5 Å and MuvB^TAIL 8.7 Å, known structures fitted; settings: both partners purified
LIN9^FL(1–542) [1] = biological target: B1; assay: cross-linking; DSSO cross-linking mass spectrometry of 28 μM purified MuvB complex, 10 min on ice, monomeric SEC fraction analysed; settings: both partners purified
RbBP4^FL(1–425) = biological target: T2, RbBP4^FL(1–425) (human, UniProt Q09028 1-425); assay: as above; settings: both partners purified
T2 construct: Subunit of the co-expressed MuvB complexes in which the StrepII x2 tag stands on LIN37; source: Hi-5 insect cells co-infected with MuvB baculoviruses; purified as part of the complex (Strep-Tactin, 3C protease, SEC)
T2 sequence (Q09028 whole entry): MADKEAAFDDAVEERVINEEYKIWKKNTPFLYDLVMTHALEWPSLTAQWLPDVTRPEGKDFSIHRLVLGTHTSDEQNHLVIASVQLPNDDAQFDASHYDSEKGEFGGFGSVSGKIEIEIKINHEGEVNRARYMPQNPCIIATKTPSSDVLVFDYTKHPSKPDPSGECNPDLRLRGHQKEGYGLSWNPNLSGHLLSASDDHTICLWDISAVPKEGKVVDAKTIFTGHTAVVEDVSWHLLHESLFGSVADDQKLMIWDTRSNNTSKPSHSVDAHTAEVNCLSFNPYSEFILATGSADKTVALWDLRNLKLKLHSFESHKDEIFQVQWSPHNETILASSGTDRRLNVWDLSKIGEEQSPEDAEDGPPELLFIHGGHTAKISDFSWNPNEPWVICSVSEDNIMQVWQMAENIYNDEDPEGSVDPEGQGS

LIN9^FL(1–542) [2] = biological target: B1; assay: SEC; subunits co-expressed in Hi-5 cells; complex held on Strep-Tactin by StrepII x2 on LIN37, washed with 1000 mM NaCl, tag cut with 3C, then SEC (S200 or Superose 6) in 20 mM HEPES pH 8, 150 mM NaCl, 0.5 mM TCEP; settings: partners not purified

## B1
LIN37^FL(1–246)
  stoichiometry N: 1
B-MYB^FL(1–700)
  binding result: binds

## B2
LIN37^FL(1–246)
  stoichiometry N: 1

## B3
LIN9^FL(1–542) [1]
  binding result: binds
RbBP4^FL(1–425)
  binding result: binds
LIN37^FL(1–246)
  stoichiometry N: 1

## B4
LIN9^FL(1–542) [2]
  binding result: binds
